Residue numbers refer to the chain shown, from its start.

The values that follow come from US12221481B2, “CD19 binding molecules and uses thereof” (Novartis AG, priority 2019, dated 2025).

In one data set the test system is cyno CD19. The data set can be described thus: Binding of TBMs to 300.19 cells overexpressing cyno CD19 (FACS). The arrangement: species or system cynomolgus. On the procedure:
(§1) The mouse cell line 300.19 was engineered to overexpress either human CD19 or cyno CD19. Cells were cultured in RPMI medium (Invitrogen #11875-093) with 10% FBS and 2-mercaptoethanol. Cells were harvested and resuspended in FACS buffer (PBS containing 1% FBS). 50,000 cells per well were plated in a V-bottom 96-well plate. Each cell line was incubated with serial dilutions of TBMs of Example 1A (i.e., R variants) for one hour on ice. Cells were centrifuged for 4 min at 400×g and washed with FACS buffer. This was repeated twice, and then the cells were incubated with Alexa-647 labeled anti-human Fc secondary antibody (Jackson Immuno #109-605-098) for 30 min on ice. The cells were washed twice, then resuspended in 100 μL of FACS buffer. FACS data was collected on a Beckman Coulter Cytoflex and analysis was performed using CytExpert v2.3.

In the next data set the target is T1, human CD19 (Homo sapiens, UniProt P15391).
T1 construct: expressed in transfected cells; host or cells: mouse cell line 300.19
T1 sequence (P15391 20-556): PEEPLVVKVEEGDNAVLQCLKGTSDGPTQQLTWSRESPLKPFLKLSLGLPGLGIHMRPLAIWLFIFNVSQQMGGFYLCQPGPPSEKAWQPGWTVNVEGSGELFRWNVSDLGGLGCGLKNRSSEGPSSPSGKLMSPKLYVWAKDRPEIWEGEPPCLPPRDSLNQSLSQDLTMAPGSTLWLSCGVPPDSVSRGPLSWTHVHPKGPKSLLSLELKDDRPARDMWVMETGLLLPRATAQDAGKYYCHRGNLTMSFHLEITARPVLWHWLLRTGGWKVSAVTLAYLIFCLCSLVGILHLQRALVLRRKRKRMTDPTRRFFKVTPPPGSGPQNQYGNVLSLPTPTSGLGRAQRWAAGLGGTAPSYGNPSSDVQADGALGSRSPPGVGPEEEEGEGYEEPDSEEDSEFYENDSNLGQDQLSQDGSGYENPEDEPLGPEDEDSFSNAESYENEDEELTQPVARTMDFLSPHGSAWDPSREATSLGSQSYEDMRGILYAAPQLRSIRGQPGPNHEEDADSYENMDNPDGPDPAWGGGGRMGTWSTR
The data set can be described thus: Binding of TBMs to 300.19 cells overexpressing human CD19 (FACS). The following applies: for binding to human CD19 compared with cyno CD19: 300.19 cells overexpressing human or cyno CD19. On the procedure: as §1

Data set [1] can be described thus: Thermal stability of CD58 variants by differential scanning calorimetry (DSC). The class given is physicochemical. The following applies: HBS, 0.5 mg/mL. On the procedure: For DSC, all samples were dialyzed into HEPES-buffered saline (HBS) and diluted to final concentration of 0.5 mg/mL. Tm and Tonset were determined using a MicroCal VP-Capillary DSC system (Malvern) by increasing temperature from 25° C. to 100° C. at 1° C./minute with a filtering period of 2 seconds and a mid-gain setting.

Data set [2] can be described thus: Thermal stability of CD58 variants by differential scanning fluorimetry (DSF). The class given is physicochemical. On the procedure:
Disulfide stabilized variants were assessed for improved thermal stability using both differential scanning calorimetry (DSC) and differential scanning fluorimetry (DSF) using standard techniques. For DSF, 1-3 ug of each construct was add to 1× Sypro Orange (Thermo-Fisher) in 25 ul total volume in 96-well PCR plate. Using a Bio-Rad CFX96 RT-PCR system equipped with C1000 Thermal Cycler, the temperature was increased from 25° C. to 95° C. at 0.5° C./minute and the fluorescence monitored. The manufacturer-supplied software was used to determine Tm.

The target of a further data set is CD3-Fc. Description: CD3 affinity measurement of anti-CD3 mAbs (Biacore T200). Conditions: as measured by Biacore; stated to be for identification, not absolute affinity values. The class given is binding. From the text: For each trispecific construct, three plasmids were synthesized. […] It should be understood that with respect to the mentioned Biacore affinity values and relative terms in the construct names, these are used merely for identification purposes and are not intended to represent absolute affinity values. A second plasmid encoding a light chain was synthesized as a fusion comprising (in the N-terminal to C-terminal direction) (i) an anti-CD19 VL domain and (ii) a constant human kappa sequence. The proteins encoded by the first and second plasmids form the first half antibody. A third plasmid encoding the second half antibody was synthesized as a fusion comprising (in the N-terminal to C-terminal direction) (i) the IgV domain of CD58 (CD58-6) and (ii) a constant hIgG1 domain containing a T366W mutation for a knob to facilitate heterodimerization as well as silencing mutations.
Briefly, anti-hFc IgG1 was immobilized on a CM5 chip. After capturing CD3-Fc (1 μg/ml in HBS-EP+ buffer, flow rate of 50 μl/min, with a 30 second injection time) kinetic data was acquired by subsequent injections of 1:2 dilution series of the different antibodies in HBS-EP+ buffer.
Data were evaluated using the Biacore T200 evaluation software version 1.0. The raw data were double referenced, i.e. the response of the measuring flow cell was corrected for the response of the reference flow cell, and in a second step the response of a blank injection was subtracted. Finally, the sensorgrams were fitted by applying 1:1 binding model to calculate kinetic rate constants and dissociation equilibrium constants. Rmax was set at local. Data were processed individually for each run.
A general note: In SPR one partner is held on a chip, and binding of the other changes the refractive index at the surface.

For a further data set, the target named is T2, recombinant human CD2 (Homo sapiens, UniProt P06729).
T2 construct: transiently produced and purified from HEK293 cells along with the CD2 extracellular domain; made in house; host or cells: HEK293 / HEK293F, transient
T2 sequence (P06729 with tags, fused parts or gaps): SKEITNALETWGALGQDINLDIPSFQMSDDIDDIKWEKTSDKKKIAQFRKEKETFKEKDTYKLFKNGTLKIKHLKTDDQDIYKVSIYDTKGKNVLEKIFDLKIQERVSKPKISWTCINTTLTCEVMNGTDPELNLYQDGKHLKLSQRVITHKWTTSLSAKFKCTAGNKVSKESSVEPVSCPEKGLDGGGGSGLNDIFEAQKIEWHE
The data set can be described thus: Isothermal calorimetry (ITC) of CD58 variants binding to CD2. Conditions: apparent KD, CD2 titrated into 10 μM CD58 variant, HBS. On the procedure:
To ensure the binding affinity remained uncompromised by the additional of the stabilizing disulfide variance, isothermal calorimetry (ITC) was performed on the resulting recombinant CD58 proteins to determine their apparent KD and binding stoichiometry (n) to recombinant human CD2.
Briefly, recombinant human CD2 and recombinant human CD58 variants were dialyzed into HEPES-buffered saline (HBS). CD2 was diluted to final concentration of 100 μM, CD58 variants were diluted to 10 μM. CD2 was titrated into 10 μM of CD58 variants via multiple injections and ΔH (kcal/mole) determined using a MicroCal VP-ITC isothermal titration calorimeter (Malvern). Titrations of CD2 into HBS were used as a reference and KD and n determined from the resulting data.
(Isothermal titration calorimetry measures the heat released or taken up as one component is titrated into another.)

B1: NEG258: CD19 antibody; VH SEQ ID NO:13, VL SEQ ID NO:26 (antibody, V domains shown)
VH: QVQLVQSGAEVKKPGASVKVSCKASGYTFTTYWIQWVRQAPGQRLEWMGAVYPGDADTRYTQKFQGRVTLTADRSASTAYMELSSLRSEDTAVYYCGRDAGLEYYALDYWGQGTLVTVSS
VL: EIVMTQSPATLSVSPGERATLSCRASQDVGTAVAWYQQKPGQAPRLLIYWASTRHTGIPARFSGSGSGTEFTLTISSLQSEDFAVYFCQQYANFPLYTFGQGTKLEIK
Turning to B1, in the data set on cyno CD19, the “affinity for cyno CD19, NEG258 vs NEG218” value was “greater affinity for both human CD19 and cyno CD19”. Also, in the data set with human CD19, the “affinity for human CD19, NEG258 vs NEG218” value is “greater affinity for both human CD19 and cyno CD19”; the “binding to human CD19 compared with cyno CD19” value was “bind equally to both human and cyno”.

B2: IgV V54C_G88C: CD58 IgV domain with V54 and G88 replaced by cysteines (stabilizing disulfide) (protein)
chain: SQQIYGVVYGNVTFHVPSNVPLKECLWKKQKDKVAELENSEFRAFSSFKNRVYLDTVSCSLTIYNLTSSDEDEYEMESPNITDTMKFFLYVLESGGGGSHHHHHHHH
On to B2, for which, in data set [1], the “Tm by Differential Scanning Calorimetry (DSC)” value worked out at 80.9 °C and the “Tmonset by Differential Scanning Calorimetry (DSC)” value came to 66.7 °C. Moreover, the “Tm by Differential Scanning Fluorimetry (DSF)” value in data set [2] was found to be 76.5 °C.

B3: IgV V45C_M105C: CD58 IgV domain with V45 and M105 replaced by cysteines (stabilizing disulfide) (protein)
chain: B2 chain with V16C, C25V, C59G, M76C
Regarding B3, in data set [1], the “Tm by Differential Scanning Calorimetry (DSC)” value was found to be 66.8 °C and the “Tmonset by Differential Scanning Calorimetry (DSC)” value came to 43.9 °C. For the same molecule, the “Tm by Differential Scanning Fluorimetry (DSF)” value in data set [2] amounted to 48.5 °C.

B4: CD58_IgV: recombinant human CD58 IgV domain (domain 1), no added disulfide (protein)
chain: B2 chain with C25V, C59G
For the molecule B4, in data set [1], the “Tm by Differential Scanning Calorimetry (DSC)” value was 60.9 °C and the “Tmonset by Differential Scanning Calorimetry (DSC)” value was determined as 46.3 °C. Also, in data set [2], the “Tm by Differential Scanning Fluorimetry (DSF)” value came to 48.5 °C.

B5: IgV V45C_M114C: CD58 IgV domain with V45 and M114 replaced by cysteines (stabilizing disulfide) (protein)
chain: B2 chain with V16C, C25V, C59G, M85C
Consider B5, for which, in data set [1], the “Tm by Differential Scanning Calorimetry (DSC)” value amounted to 72.5 °C and the “Tmonset by Differential Scanning Calorimetry (DSC)” value was found to be 49.6 °C. For the same molecule, in data set [2], the “Tm by Differential Scanning Fluorimetry (DSF)” value came to 63.5 °C.

B6: CD3hi: anti-CD3 antibody having high affinity to CD3 (in relative terms) (antibody, V domains shown)
VH: EVQLVESGGGLVQPGGSLKLSCAASGFTFNTYAMNWVRQASGKGLEWVGRIRSKYNNYATYYADSVKDRFTISRDDSKSTLYLQMNSLKTEDTAVYYCVRHGNFGNSYVSWFAYWGQGTLVTVSS
VL: QAVVTQEPSLTVSPGGTVTLTCRSSTGAVTTSNYANWVQQKPGQAPRGLIGGTNKRAPWTPARFSGSLLGDKAALTLSGAQPEDEAEYFCALWYSNLWVFGGGTKLTVL
Take B6: on CD3-Fc, the Kd stood at 16 nM.

B7: CD3lo: anti-CD3 antibody having low affinity to CD3 (in relative terms) (antibody, V domains shown)
VH: B6 VH with L81A
VL: B6 VL
With B7, the Kd on CD3-Fc is 48 nM.

B8: CD3med: anti-CD3 antibody having medium affinity to CD3 (in relative terms) (antibody, V domains shown)
VH: B6 VH with S79N, L81A, Y114H
VL: B6 VL with R23G, T31S, D71G, F89Y
Take B8: the Kd at CD3-Fc was determined as 30 nM.

B9: NEG218: CD19 antibody; VH SEQ ID NO:39, VL SEQ ID NO:52 (antibody, V domains shown)
VH: EVQLVQSGAEVKKPGESLKISCKASGYSFTNYWMNWVRQMPGKGLEWMGMIHPSDSEIRLNQKFQGQVTLSVDKSIGTAYMQWSSLKASDTAMYYCSRWYYLSSPMDYWGQGTTVTVSS
VL: EIVMTQSPATLSVSPGERATLSCRASQDVGTAVAWYQQKPGQAPRLLIYWASTRHTGIPARFSGSGSGTEFTLTISSLQSEDFAVYFCQQYSSYPYTFGQGTKLEIK
On to B9, for which the “binding to human CD19 compared with cyno CD19” value with human CD19 is recorded as “greater affinity for cyno CD19 than human CD19”.

B10: CD58 Full ECD: recombinant human CD58 full extracellular domain (protein)
chain: SQQIYGVVYGNVTFHVPSNVPLKEVLWKKQKDKVAELENSEFRAFSSFKNRVYLDTVSGSLTIYNLTSSDEDEYEMESPNITDTMKFFLYVLESLPSPTLTCALTNGSIEVQCMIPEHYNSHRGLIMYSWDCPMEQCKRNSTSIYFKMENDLPQKIQCTLSNPLFNTTSSIILTTCIPSSGHSRHRGGGGSHHHHHHHH
B10: in data set [1], the “Tm by Differential Scanning Calorimetry (DSC)” value is 65.0 °C and the “Tmonset by Differential Scanning Calorimetry (DSC)” value is 48.8 °C. Further, the Kd in the data set with recombinant human CD2 was determined as 570 nM. For the same molecule, the “Tm by Differential Scanning Fluorimetry (DSF)” value in data set [2] came out at 59.5 °C.
